The record followed here is PMC5385372.

By stoichiometry N is commonly meant a count of units in the complex or per binding partner.

The target in this assay is sGFP-foldon. Briefly: single-molecule fluorescence brightness analysis; GFP-fused proteins expressed in LTE (2-3 h, 27 °C), diluted about 10 times in buffer A (25 mM HEPES, 50 mM NaCl), 1-100 nanomolar, freely diffusing through a confocal volume, room temperature; also with serial dilution of the plasmid to vary the final expression level.

Chain of sGFP-foldon (P10104 2-487): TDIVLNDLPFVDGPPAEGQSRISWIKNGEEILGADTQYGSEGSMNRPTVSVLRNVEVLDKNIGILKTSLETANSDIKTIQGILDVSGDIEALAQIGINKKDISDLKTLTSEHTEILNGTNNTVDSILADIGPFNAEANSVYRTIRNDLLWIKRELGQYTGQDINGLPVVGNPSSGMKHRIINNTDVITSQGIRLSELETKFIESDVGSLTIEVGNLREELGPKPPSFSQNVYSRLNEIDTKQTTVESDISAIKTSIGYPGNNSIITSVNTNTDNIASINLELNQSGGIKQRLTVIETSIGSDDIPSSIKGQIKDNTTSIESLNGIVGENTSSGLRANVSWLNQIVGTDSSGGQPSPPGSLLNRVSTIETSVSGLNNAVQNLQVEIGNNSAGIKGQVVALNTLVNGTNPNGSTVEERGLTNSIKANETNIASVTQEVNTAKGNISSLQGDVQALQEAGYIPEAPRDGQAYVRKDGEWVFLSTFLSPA

Substance sGFP-foldon (domain or fragment) displayed a stoichiometry N of 3.
